± gives the standard deviation of the averaged measurements.
Test system: ATP
Assay: switch fluorescence ratio, 500 uM ATP over buffer (Cy3 cluster intensity, sum of 5 cycles each) (fold (ratio)); higher = stronger signal-on switching upon ATP binding; sequences stand for … in TCGTCGGCAGCGTCAGATGTGTATAAGAGACAGTTTTTTTTTTTTTTTTTTTTTTTTT…TC
Conditions: aptamer strand: ATP DNA aptamer (quencher-CACCTGGGGGAGTATTGCGGAGGAAGG + anchor), 100 nM annealed; ATP concentration: 500 uM
In short: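 Imaging in selection buffer was followed by imaging after 15 min with 500 uM ATP at 22 °C, for Cy3-labelled switching-strand clusters annealed to 100 nM quencher-labelled ATP aptamer on a modified Illumina MiSeq flow-cell. Five of these buffer/ATP cycles ran, separated by NaOH stripping and re-annealing. The fluorescence ratio per cluster is summed target-cycle over summed buffer-cycle Cy3 intensity, averaged per switch-domain sequence; clusters outside 100-1000 RFU were removed.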
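Also: ATP exposure 15 min at 22 °C before imaging.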

Row | Sequence | switch fluorescence ratio
1 | TGGGTTGACG | 0.998 ± 0.037
2 | TGGCCGGAAT | 1.04 ± 0.03
3 | AGTTCCAAAA | 1.07 ± 0.1
4 | CGGGAGACGG | 1.31 ± 0.26
5 | AACCAAAAAA | 1.01 ± 0.019
6 | TGCAAAGAGC | 0.9824 ± 0.0073
7 | TGAAGTGGGG | 0.954 ± 0.016
8 | ACATAGATTT | 1.03 ± 0.029
9 | AGTATATATT | 1.003 ± 0.0035
10 | CGCCTAGAGG | 1.02 ± 0.032
11 | TTTAATGAGT | 1.02 ± 0.024
12 | TGATTCAGAG | 0.992 ± 0.029
13 | GTTTGAGATA | 0.971 ± 0.035
14 | CGCTTAGGCA | 1.02 ± 0.053
15 | ATGGAGGCGT | 0.994 ± 0.015
16 | AACGTAGTGT | 1.01 ± 0.047
17 | TATTTTTTAT | 1.022 ± 0.0017
18 | TCTATTTGCA | 1 ± 0.042
19 | GGTCGGCGTC | 1.014 ± 0.0089
20 | TAATCTAGGG | 0.985 ± 0.046
21 | AGAGAGGGCG | 0.888 ± 0.14
22 | AAGATGTAGC | 1.006 ± 0.0053
23 | AGGTAGTTTG | 0.9979 ± 0.0018
24 | TTTGATTGCA | 1.03 ± 0.068
25 | CGACGAACGA | 1.54 ± 0.07

Row | Sequence | switch fluorescence ratio
26 | CTGGAATTTT | 0.9949 ± 0.0028
27 | CGTAAAGGCC | 0.9465 ± 0.0012
28 | GGGTTTAATG | 0.96 ± 0.016
29 | GGGGTGGATA | 0.996 ± 0.027
30 | TTATCACTCG | 1.01 ± 0.0054
31 | TCGGTGATAC | 4.52 ± 1.3
32 | GGGTGGGCAT | 1.03 ± 0.013
33 | GCGGCAGGGC | 1.05 ± 0.017
34 | AGGTCTAGAC | 1.04 ± 0.0095
35 | TTTCCCGGCT | 1.04 ± 0.083
36 | ACTATCGGTT | 1.07 ± 0.075
37 | TTGGTTCATT | 1.01 ± 0.021
38 | TCATGGAGGT | 0.96 ± 0.03
39 | AGAAAATAGA | 0.9789 ± 0.0084
40 | CTGGGTATGT | 0.959 ± 0.027
41 | TCTGGTAGTG | 1.03 ± 0.035
42 | CGCATACGGT | 4.124 ± 0.029
43 | ACATTTGGGG | 1.03 ± 0.066
44 | TGGGAGGG | 1.04 ± 0.013
45 | AGGTGATGGT | 0.997 ± 0.023
46 | TTTTTGTCTT | 0.96 ± 0.023
47 | GCCGTAGTAA | 1.68 ± 0.011
48 | GGGGGGGCTG | 1.06 ± 0.4
49 | AAGTAAGTGG | 1.03 ± 0.042
50 | GTGGGGTCCG | 0.99 ± 0.046

Row | Sequence | switch fluorescence ratio
51 | TTTCAGACAC | 1.02 ± 0.011
52 | AGGAAAGTCT | 1.02 ± 0.066
53 | CTTTGGCTTC | 0.9876 ± 0.0039
54 | ATTTCAGGGT | 1 ± 0.015
55 | GCGAGGGAGT | 1.02 ± 0.037
56 | TACTAAGTGG | 1.05 ± 0.015
57 | TATTACTTTG | 1.01 ± 0.024
58 | GCAGGTGGAG | 1.02 ± 0.06
59 | GGGACGGGTG | 1.02 ± 0.025
60 | ACGAGGTTCT | 1.016 ± 0.003
61 | AGATACATAT | 1.05 ± 0.0056
62 | CATTATTTCA | 0.997 ± 0.04
63 | ATTAAAATAC | 1.09 ± 0.11
64 | CCAAGGGTTT | 0.993 ± 0.06
65 | GGGATAGATC | 1.05 ± 0.016
66 | TTTGCAGCGG | 1.02 ± 0.012
67 | CGCTCTTTTG | 1.02 ± 0.061
68 | CATAGCTAGG | 1.004 ± 0.0075
69 | TAACAGAGGT | 1.01 ± 0.033
70 | TTGATTCG | 1.015 ± 0.0037
71 | TTCCTGAAGG | 1.02 ± 0.041
72 | ACACTATTAT | 1.07 ± 0.033
73 | ACGTCCGATC | 1.11 ± 0.039
74 | GAGGGGTTGT | 1.03 ± 0.013
75 | GATTTTTCGT | 0.973 ± 0.01

Row | Sequence | switch fluorescence ratio
76 | ATTCGGGACC | 0.973 ± 0.019
77 | TGGGCGGTGC | 1.93 ± 1.2
78 | TATATCTCCG | 1.12 ± 0.015
79 | ACAGCAGCGG | 1.05 ± 0.021
80 | ATCCCGAAGC | 1.93 ± 0.18
81 | CAACGGACTA | 1.246 ± 0.0095
82 | TCAGGTTTTG | 0.98 ± 0.013
83 | CGGGATAGTA | 0.994 ± 0.041
84 | ACATGGGCTA | 1.09 ± 0.11
85 | GAATGGATGT | 1 ± 0.012
86 | TTGTCCCTGC | 1.016 ± 0.0054
87 | TATCACATTG | 0.992 ± 0.039
88 | TGAGTGGGAG | 0.998 ± 0.021
89 | GTATTTACAT | 0.9862 ± 0.0048
90 | TCGGAGGGAG | 1.02 ± 0.056
91 | ATTGGTAGGG | 0.9858 ± 0.004
92 | TGAGGCACGG | 1.05 ± 0.056
93 | TAGGAGGTAT | 1.01 ± 0.048
94 | GTCTGTTCGC | 1.02 ± 0.085
95 | GTTGGACAGC | 1.01 ± 0.023
96 | TGGGTTTTTT | 1.01 ± 0.048
97 | ATGCTATGTA | 1.01 ± 0.033
98 | TTCCGATTCG | 1.09 ± 0.035
99 | GCATGTCGTT | 1.001 ± 0.0047
100 | TATTATGCGA | 1.04 ± 0.022

Reference: the supplement of paper PMC10126150
